The target of series [1] is T1, Msi1 RBD1 (Mus musculus, UniProt Q61474 20-103). Description: competition.
Series [2] deals with T1, Msi1 RBD1. Nature of the series: NMR HSQC titration.
In a further series the target is Msi1 RBD2 (Mus musculus, UniProt Q61474 109-191). Description: NMR HSQC titration.
In series [3] the target is T1, Msi1 RBD1. Description: NMR HSQC titration. The source holds these as a separate data set.
A further series deals with Msi1 RBD1-2 (Mus musculus, UniProt Q61474 20-191). Nature of the series: NMR HSQC titration.

Like-named read-outs stand apart in the source and are kept apart here.

Data on five molecules can be found in article PMC3326303.

T1 sequence (Q61474 20-103): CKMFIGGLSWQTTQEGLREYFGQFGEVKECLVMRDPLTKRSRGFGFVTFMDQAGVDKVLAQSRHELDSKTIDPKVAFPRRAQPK
Msi1 RBD2, sequence (Q61474 109-191): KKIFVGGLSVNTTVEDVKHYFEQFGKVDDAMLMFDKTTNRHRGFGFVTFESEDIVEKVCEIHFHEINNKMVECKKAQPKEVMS
Msi1 RBD1-2, sequence (Q61474 20-191): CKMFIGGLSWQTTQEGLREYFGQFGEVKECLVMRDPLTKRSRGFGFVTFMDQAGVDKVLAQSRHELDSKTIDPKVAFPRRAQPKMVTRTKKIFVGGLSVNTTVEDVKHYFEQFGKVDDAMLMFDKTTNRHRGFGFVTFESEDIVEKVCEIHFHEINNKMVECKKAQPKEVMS

B1: numb6-4 (ssRNA)
RNA: GUAGUU
Turning to B1, the binding signal in the series with Msi1 RBD1 [1] was ~1 ratio of complex signal to numb6-2 complex.

B2: numb5 (ssRNA)
RNA: GUAGU
Turning to B2, the binding result in the series with Msi1 RBD1 [2] is recorded as “binds”.

B3: numb6-1 (ssRNA)
RNA: UAGGUA
Consider B3, for which the binding result with Msi1 RBD2 is “binds”.

B4: numb6-2 (ssRNA)
RNA: GGUAGU
As to B4, the binding result in the series with Msi1 RBD1 [3] and with Msi1 RBD2 was “binds” throughout.

B5: numb15 (ssRNA)
RNA: UAGGUAGUAGUUUUA
As to B5, in the series with Msi1 RBD1-2, the binding result was “binds”.
